{
  "source": "paper PMC2680030",
  "molecular_target": "ULBP1 (UniProt Q9BZM6)",
  "sequence (Q9BZM6 26-216)": "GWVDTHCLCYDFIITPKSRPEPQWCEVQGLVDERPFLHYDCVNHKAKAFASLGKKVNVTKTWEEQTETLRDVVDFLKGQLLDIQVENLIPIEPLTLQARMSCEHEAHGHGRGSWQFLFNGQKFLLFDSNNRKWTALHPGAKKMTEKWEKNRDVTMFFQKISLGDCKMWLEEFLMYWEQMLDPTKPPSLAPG",
  "data": [
    {"substance": "NKG2D (from UniProt P26718 1-216) (receptor)", "values": [
      {"measurement": "specific killing via NKG2D: killing of C1R/ULBP1 (37%) minus killing of C1R/Mock (20%) by primary bulk NK culture NK-A.K., effector-to-target ratio 5:1, PI co-staining of CFSE-labelled target cells", "value": 17, "unit": "%"}
    ]}
  ]
}
